Key:
HeLa Kyoto [1] = assay: solubility in G1/S (NP-40 vs SDS abundance) (log2 ratio); higher = more soluble; settings: cell cycle stage: G1/S
HeLa Kyoto [2] = assay: melting temperature (median over replicates), in situ; higher = more thermally stable
HeLa Kyoto [3] = assay: solubility change mitosis vs G1/S (difference of NP-40 vs SDS log2 ratios) (log2 ratio difference); higher = more soluble in mitosis
HeLa Kyoto [4] = assay: thermal stability score vs G1/S (z-score of summed log2 fold changes over temperatures); higher = more thermally stable than in G1/S
[5] = cell cycle stage: early G1 (4.5 h after nocodazole release)
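For melting temperature (median over replicates), in situ in this document: HeLa Kyoto cells synchronized by double thymidine or nocodazole block, proteins quantified by TMT10plex mass spectrometry, three independent biological replicates.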
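For solubility change mitosis vs G1/S (difference of NP-40 vs SDS log2 ratios) in this document: synchronized HeLa Kyoto cells (double thymidine block for G1/S, nocodazole release for mitosis), protein amounts in NP-40 versus SDS lysates quantified by mass spectrometry, three biological replicates.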
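For solubility in G1/S (NP-40 vs SDS abundance) in this document: HeLa Kyoto cells arrested at G1/S by double thymidine block, proteins quantified by TMT10plex mass spectrometry in mild NP-40 versus SDS extracts, three biological replicates.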
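For thermal stability score vs G1/S (z-score of summed log2 fold changes over temperatures) in this document: synchronized HeLa Kyoto cells, proteins quantified by TMT10plex mass spectrometry, three biological replicates, mitosis taken 0.5 h after nocodazole release, G1/S directly after double thymidine block.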

| Sequence | solubility in G1/S (log2) (HeLa Kyoto [1]) | melting temperature (HeLa Kyoto [2]; cell cycle stage: G1/S) [°C] | melting temperature (HeLa Kyoto [2]; cell cycle stage: mitosis) [°C] | solubility change mitosis (log2) (HeLa Kyoto [3]) | thermal stability score (HeLa Kyoto [4]; [5]) | thermal stability score (HeLa Kyoto [4]; cell cycle stage: mitosis) |
| --- | --- | --- | --- | --- | --- | --- |
| MEEASEGGGNDRVRNLQSEVEGVKNIMTQNVERILARGENLEHLRNKTEDLEATSEHFKTTSQKVARKFWWKNVKMIVLICVIVFIIILFIVLFATGAFS [VAMP8] | -0.136 | 57.8 | 55.5 | 0.136 | -3.17 | -6.62 |
| MEEECRVLSIQSHVIRGYVGNRAATFPLQVLGFEIDAVNSVQFSNHTGYAHWKGQVLNSDELQELYEGLRLNNMNKYDYVLTGYTRDKSFLAMVVDIVQELKQQNPRLVYVCDPVLGDKWDGEGSMYVPEDLLPVYKEKVVPLADIITPNQFEAELLSGRKIHSQEEALRVMDMLHSMGPDTVVITSSDLPSPQGSNYLIVLGSQRRRNPAGSVVMERIRMDIRKVDAVFVGTGDLFAAMLLAWTHKHPNNLKVACEKTVSTLHHVLQRTIQCAKAQAGEGVRPSPMQLELRMVQSKRDIEDPEIVVQATVL [PDXK] | 0.315 | 55.5 | 56.3 | -0.0576 | 0.134 | 0.0482 |
| MEEIYAKFVSQKISKTRWRPLPPGSLQTAETFATGSWDNEENYISLWSIGDFGNLDSDGGFEGDHQLLCDIRHHGDVMDLQFFDQERIVAASSTGCVTVFLHHPNNQTLSVNQQWTTAHYHTGPGSPSYSSAPCTGVVCNNPEIVTVGEDGRINLFRADHKEAVRTIDNADSSTLHAVTFLRTPEILTVNSIGQLKIWDFRQQGNEPSQILSLTGDRVPLHCVDRHPNQQHVVATGGQDGMLSIWDVRQGTMPVSLLKAHEAEMWEVHFHPSNPEHLFTCSEDGSLWHWDASTDVPEKSSLFHQGGRSSTFLSHSISNQANVHQSVISSWLSTDPAKDRIEITSLLPSRSLSVNTLDVLGPCLVCGTDAEAIYVTRHLFS [NUP43] | -0.175 | 53.1 | 53.1 | 0.0611 | -1.7 | -3.31 |
| MEEKPGQPQPQHHHSHHHPHHHPQQQQQQPHHHHHYYFYNHSHNHHHHHHHQQPHQYLQHGAEGSPKAQPKPLKHEQKHTLQQHQETPKKKTGYGELNGNAGEREISLKNLSSDEATNPISRVLNGNQQVVDTSLKQTVKANTFGKAGIKTKNFIQKNSMDKKNGKSYENKSGENQSVDKSDTIPIPNGVVTNNSGYITNGYMGKGADNDGSGSESGYTTPKKRKARRNSAKGCENLNIVQDKIMQQETSVPTLKQGLETFKPDYSEQKGNRVDGSKPIWKYETGPGGTSRGKPAVGDMLRKSSDSKPGVSSKKFDDRPKGKHASAVASKEDSWTLFKPPPVFPVDNSSAKIVPKISYASKVKENLNKTIQNSSVSPTSSSSSSSSTGETQTQSSSRLSQVPMSALKSVTSANFSNGPVLAGTDGNVYPPGGQPLLTTAANTLTPISSGTDSVLQDMSLTSAAVEQIKTSLFIYPSNMQTMLLSTAQVDLPSQTDQQNLGDIFQNQWGLSFINEPSAGPETVTGKSSEHKVMEVTFQGEYPATLVSQGAEIIPSGTEHPVFPKAYELEKRTSPQVLGSILKSGTTSESGALSLEPSHIGDLQKADTSSQGALVFLSKDYEIESQNPLASPTNTLLGSAKEQRYQRGLERNDSWGSFDLRAAIVYHTKEMESIWNLQKQDPKRIITYNEAMDSPDQ [NUFIP2] | -0.731 | 53.8 | 52.4 | 0.593 | -0.0647 | -0.912 |
| MEELIVELRLFLELLDHEYLTSTVREKKAVITNILLRIQSSKGFDVKDHAQKQETANSLPAPPQMPLPEIPQPWLPPDSGPPPLPTSSLPEGYYEEAVPLSPGKAPEYITSNYDSDAMSSSYESYDEEEEDGKGKKTRHQWPSEEASMDLVKDAKICAFLLRKKRFGQWTKLLCVIKDTKLLCYKSSKDQQPQMELPLQGCNITYIPKDSKKKKHELKITQQGTDPLVLAVQSKEQAEQWLKVIKEAYSGCSGPVDSECPPPPSSPVHKAELEKKLSSERPSSDGEGVVENGITTCNGKEQVKRKKSSKSEAKGTVSKVTGKKITKIISLGKKKPSTDEQTSSAEEDVPTCGYLNVLSNSRWRERWCRVKDNKLIFHKDRTDLKTHIVSIPLRGCEVIPGLDSKHPLTFRLLRNGQEVAVLEASSSEDMGRWIGILLAETGSSTDPEALHYDYIDVEMSASVIQTAKQTFCFMNRRVISANPYLGGTSNGYAHPSGTALHYDDVPCINGSLKGKKPPVASNGVTGKGKTLSSQPKKADPAAVVKRTGSNAAQYKYGKNRVEADAKRLQTKEEELLKRKEALRNRLAQLRKERKDLRAAIEVNAGRKPQAILEEKLKQLEEECRQKEAERVSLELELTEVKESLKKALAGGVTLGLAIEPKSGTSSPQSPVFRHRTLENSPISSCDTSDTEGPVPVNSAAVLKKSQAAPGSSPCRGHVLRKAKEWELKNGT [AFAP1] | -0.611 | 50.5 | 49.7 | 0.451 | -1.47 | -2.94 |
| MEELLRRELGCSSVRATGHSGGGCISQGRSYDTDQGRVFVKVNPKAEARRMFEGEMASLTAILKTNTVKVPKPIKVLDAPGGGSVLVMEHMDMRHLSSHAAKLGAQLADLHLDNKKLGEMRLKEAGTVGRGGGQEERPFVARFGFDVVTCCGYLPQVNDWQEDWVVFYARQRIQPQMDMVEKESGDREALQLWSALQLKIPDLFRDLEIIPALLHGDLWGGNVAEDSSGPVIFDPASFYGHSEYELAIAGMFGGFSSSFYSAYHGKIPKAPGFEKRLQLYQLFHYLNHWNHFGSGYRGSSLNIMRNLVK [FN3KRP] | 0.12 | 61.1 | 58.3 | 0.00242 | -1.05 | -2.45 |
